Reference: the supplement of paper PMC9170038

System: MS2 coat protein
Experiment: apparent KD of MS2 coat protein; designed switch direction (-1 OFF switch, 1 ON switch): -1; higher = weaker reporter binding
Outline: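 On Illumina chips, designed RNA switches with common flanks were made by stalled E. coli RNA polymerase. Titrations with SNAP-549-labelled MS2 coat protein, doubling from 0.7 or 1.5 nM to 3 µM, were done with no input, with 200 uM small-molecule ligand, or with an oligonucleotide input. Apparent KD is the median per design over clusters, from curve fits of normalised cluster fluorescence.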

[1] = Eterna round: R95, input ligand: FMN 200 uM
[2] = Eterna round: R95, input ligand: microRNA oligo, concentration not stated
[3] = Eterna round: R95, input ligand: none
[4] = input ligand: microRNA oligo, concentration not stated

| Sequence | apparent KD of MS2 coat protein [2] [µM] | apparent KD of MS2 coat protein (input ligand: FMN 200 uM) [µM] | apparent KD of MS2 coat protein (input ligand: none) [µM] | also measured |
| --- | --- | --- | --- | --- |
| UUUAAUUUUUUUUUUUUACAAGCUUUUUGCUCGUCUUAUACAUGAGGAUCACCCAUGUGAAUGGGAGAUAAAUUAUC [JMF 18] (puzzle: Sensor v3, turn-off variant 2) | 0.508 |  |  | apparent KD of MS2 coat protein [1]: 0.356 µM; apparent KD of MS2 coat protein [3]: 0.456 µM |
| UUUAAUUUUUUUUUUUUACAAGCUUUUUGCUCGUCUUAUACAUGAGGAUCACCCAUGUGGGUGGAGGAUAAAUUAUC [JMF 35] (puzzle: Sensor v3, turn-off variant 2) | 0.0454 |  |  | apparent KD of MS2 coat protein [1]: 0.0606 µM; apparent KD of MS2 coat protein [3]: 0.0939 µM |
| UUUAGUUCAGGAUAUGAUGAAAUUAACAUGAGGAUCACCCAUGUAGAUCCUGAAUUAACAUCAGAAGGGAACAUUU [JL-ex5-4.44 Brourd mod] (Eterna round: R97, puzzle: Exclusion 5) |  | 0.0578 | 0.0108 |  |
| UUUAGUUCAGGAUAUGUAGAAUUAAACAUGAGGAUCACCCAUGUAGUUCCUGAUCCUGCUACAGAAGGGAACAUUU [Mat - Exclusion 5 - Eli Mod - D13] (Eterna round: R97, puzzle: Exclusion 5) |  | 0.0248 | 0.0172 |  |
| UUUAGUUCAGGAUAUGUAGAUAUUAACAUGAGGAUCACCCAUGUAGAUCCUGAAUUGACUACAGAAGGGAGCAUUU [Mod of Brourd 17 - Jieux - Exclusion 5] (Eterna round: R97, puzzle: Exclusion 5) |  | 0.0447 | 0.0177 |  |
| UUUAUAUAGUAAGGAUAUGUAUUAUGUUUAUCAACAGAAGGUACUGACAUGAGGAUCACCCAUGUUUUAGUGUGGGCAUGUAGU [JMF's solution 95] (Eterna round: R96, puzzle: Exclusion NG 1) |  |  |  | apparent KD of MS2 coat protein [4]: 0.181 µM |
| UUUAUGUCAGGAUAUGAUUAGAUCUACUUUUGUAGAUCUAAUCAGAAGGGACAUGAGGAUCACCCAUGUUUUUU [Ex4 - 3 - 15] (puzzle: Exclusion 4) | 0.0412 |  |  |  |
| UUUAUUUUGCAAGGAUAUGUUUAAUUUUAGUUUCCUUACACAUGAGGAUCACCCAUGUUAUACUUACAGAAGGUGCGUAAUUUU [Excl-NG2-LRO01] (Eterna round: R96, puzzle: Exclusion NG 2) |  |  |  | apparent KD of MS2 coat protein [4]: 0.101 µM |
| UUUCAUCAUGUAGGAUAUGCGUGGCGAAGCUAUGCAGAAGGACAUGAGGAUCACCCAUGUUCUUGCGUCUGCGUACAGAUGCAA [JL ENG1 1.34] (Eterna round: R96, puzzle: Exclusion NG 1) |  | 0.267 | 0.043 | apparent KD of MS2 coat protein [4]: 0.0355 µM |
| UUUCUCGUUGUGAGGAUAUCGUUUUUGUCUCGGAUCGAGAAGGCACAUGAGGAUCACCCAUGUUUGUUGUGGUU [JR_BMOE4_Sub089] (puzzle: Brourd's mod of Exclusion 4) | 0.0749 |  |  |  |
| UUUCUCUGGGCGUCUUCUUACAUGAGGAUCACCCAUGUUUCGCAGGAUAUGCUAUAGUGUUAGAUGCAGAAGGGCGUUUGUUUU [JR_ExcNG3_Sub079] (Eterna round: R96, puzzle: Exclusion NG 3) |  | 0.262 | 0.0925 | apparent KD of MS2 coat protein [4]: 0.0858 µM |
| UUUCUUGGGCAAGGAUAUCCUGUGCGGUUCCGGCUCGUGUCUGUCACAUGAGGAUCACCCAUGUGGGAGAAGGUGCCUGCGGUC [Design 82] (Eterna round: R96, puzzle: Exclusion NG 2) |  | 0.0144 | 0.0149 | apparent KD of MS2 coat protein [4]: 0.0112 µM |
| UUUGUGUCAGGAUAUGAGUCGUAGAACAAUAGUACUACGUCUCAGAAGGGACAUGAGGAUCACCCAUGUGCCUC [Fiskers Ex 4 Super Stable 44 mod 27] (puzzle: Exclusion 4) | 0.0349 |  |  |  |
| UUUUAACAUGAGGAUCACCCAUGUGAGGAUAUCGAAAUUUAUAUUAAUAUUAAUUUUACGAGAAGGCACAUUUU [JMF 34] (puzzle: Exclusion 1) | 0.0946 |  |  |  |
| UUUUAACAUGAGGAUCACCCAUGUGAGGAUAUCGAAAUUUAUAUUAAUAUUAAUUUUUCGAGAAGGCACAUUUU [JMF 33] (puzzle: Exclusion 1) | 0.143 |  |  |  |
| UUUUAACAUGAGGAUCACCCAUGUGAGGAUAUCGAAAUUUAUAUUAAUAUUUAUUAAUCGAGAAGGCACAUUUU [JMF 60] (puzzle: Exclusion 1) | 0.1 |  |  |  |
| UUUUAACAUGAGGAUCACCCAUGUGAGGAUAUCGAAAUUUAUAUUAAUAUUUAUUUAACGAGAAGGCACAUUUU [JMF 63] (puzzle: Exclusion 1) | 0.0932 |  |  |  |

| Sequence | apparent KD of MS2 coat protein [2] [µM] | apparent KD of MS2 coat protein (input ligand: FMN 200 uM) [µM] | apparent KD of MS2 coat protein (input ligand: none) [µM] | also measured |
| --- | --- | --- | --- | --- |
| UUUUAACAUGAGGAUCACCCAUGUGAGGAUAUCGAAAUUUAUAUUAAUAUUUAUUUUUCGAGAAGGCACAUUUU [JMF 65] (puzzle: Exclusion 1) | 0.157 |  |  |  |
| UUUUAACAUGAGGAUCACCCAUGUGAGGAUAUCGAAAUUUAUAUUAAUAUUUUUAAUACGAGAAGGCACAUUUU [JMF 70] (puzzle: Exclusion 1) | 0.0496 |  |  |  |
| UUUUAACAUGAGGAUCACCCAUGUGAGGAUAUCGUUAUUUAUAUUAAUAUUAAUAAAACGAGAAGGCACAUUUU [JMF 6] (puzzle: Exclusion 1) | 0.117 |  |  |  |
| UUUUAACAUGAGGAUCACCCAUGUGAGGAUAUCGUUUUUUUUAUUAAUAUUAAUAAAACGAGAAGGCACAUUUU [JMF 18] (puzzle: Exclusion 1) | 0.14 |  |  |  |
| UUUUACAUAGGAUAUAGUUUGUUGUACAUGAGGAUCACCCAUGUUUUUGGUUGUGCUUUUCUAGAAGGAUGUUUCU [JR_E5_Sub015] (puzzle: Exclusion 5) | 0.0438 |  |  |  |
| UUUUAGACAGGAUAUACAUUUUUUUAUUUAUUUAUAAUAUUACAUGAGGAUCACCCAUGUAGAAGGGUCAUUUU [My Design] (puzzle: Exclusion 2) | 0.0371 |  |  |  |
| UUUUAGUCAGGAUAUACAUGAGGAUCACCCAUGUAAAAUUUUAAUUUAAUUUGAAGGUGUAGAAGGGACAAUUU [Ex3 #39] (Eterna round: R97, puzzle: Exclusion 3) |  | 0.0227 | 0.0358 |  |
| UUUUAGUCAGGAUAUACAUGAGGAUCACCCAUGUAAAAUUUUAAUUUAAUUUUAAGGUGUAGAAGGGACAUUUU [Ex3 #5] (Eterna round: R97, puzzle: Exclusion 3) |  | 0.0245 | 0.0276 |  |
| UUUUAGUCAGGAUAUACAUGAGGAUCACCCAUGUAAAAUUUUAAUUUAAUUUUAAGGUGUAGAAGGGACCACCC [Ex3 #14] (Eterna round: R97, puzzle: Exclusion 3) |  | 0.0312 | 0.0355 |  |
| UUUUCGUAAGGAUAUGGUUAGAUCUACGAAAGUAGAUCUAACCAGAAGGUACAUGAGGAUCACCCAUGUUGAUA [Mod of Brourd 21 - Jieux - Exclusion 4] (Eterna round: R97, puzzle: Exclusion 4) |  | 0.032 | 0.0225 |  |
| UUUUCUUUUGUGAGGAUAUACUUGUUUUUUUUUUUGUAGAAGGCACAUGAGGAUCACCCAUGUUUUCUUUCCUG [JR_BME4_Sub025] (puzzle: Brourd's mod of Exclusion 4) | 0.0201 |  |  |  |
| UUUUGGCAGGCUAUUAUUAACAUGAGGAUCACCCAUGUGCAUCCAAAAUUACUUUUAGAUCUUGCUGGUCUUAUAUA [JR_STOV1_Sub085] (Eterna round: R97, puzzle: Sensor, turn-off variant 1) |  | 0.284 | 0.33 |  |
| UUUUUAAAUGAAGGAUAUACUUAACAUGAGGAUCACCCAUGUGGUGUUGUGAGUGAGUGAGUUUAGUAGAAGGUCAAUUAUUUU [JMF's solution 20] (Eterna round: R96, puzzle: Exclusion NG 2) |  | 1.02 | 0.288 | apparent KD of MS2 coat protein [4]: 0.287 µM |
| UUUUUACAUGAGGAUCACCCAUGUCAGGAUAUGAUUAUAUUUUAUUAUUUUAUUUUUUUCAGAAGGGACUAUUA [My solution] (puzzle: Exclusion 1) | 0.0806 |  |  |  |
| UUUUUAGAUGAAGGAUAUACUUAACAUGAGGAUCACCCAUGUGGUGUUGUGAGUGAGUGAGUUUAGUAGAAGGUCAAUUCUUUU [JMF's solution 87] (Eterna round: R96, puzzle: Exclusion NG 2) |  | 0.566 | 0.346 | apparent KD of MS2 coat protein [4]: 0.311 µM |
| UUUUUAUAUGAAGGAUAUACUUAACAUGAGGAUCACCCAUGUGGUGUUGUGAGUGAGUGAGUUUAGUAGAAGGUCAAGUAUUUG [JMF's solution 42] (Eterna round: R96, puzzle: Exclusion NG 2) |  | 0.689 | 0.342 | apparent KD of MS2 coat protein [4]: 0.204 µM |
| UUUUUAUAUGAAGGAUAUACUUAACAUGAGGAUCACCCAUGUGGUGUUGUGAGUGAGUGAGUUUAGUAGAAGGUCAAGUAUUUU [JMF's solution 8] (Eterna round: R96, puzzle: Exclusion NG 2) |  | 0.431 | 0.431 | apparent KD of MS2 coat protein [4]: 0.265 µM |
